In US20060121489 one finds Kd data, which are given here for one substance.

One series has as its target NF-kB p50 homodimer (UniProt P19838). To be noted: quoted in comparison with XBY-6.
Series [1] deals with NF-kB p65 (RelA) homodimer (UniProt Q04206). Kind of series: EMSA. The note with it: 1:1 stoichiometry of p65 to the 22-mer site. In general terms: A gel shift assay detects complexes by their altered migration in electrophoresis.
NF-kB p65 (RelA) homodimer, sequence (Q04206 whole entry): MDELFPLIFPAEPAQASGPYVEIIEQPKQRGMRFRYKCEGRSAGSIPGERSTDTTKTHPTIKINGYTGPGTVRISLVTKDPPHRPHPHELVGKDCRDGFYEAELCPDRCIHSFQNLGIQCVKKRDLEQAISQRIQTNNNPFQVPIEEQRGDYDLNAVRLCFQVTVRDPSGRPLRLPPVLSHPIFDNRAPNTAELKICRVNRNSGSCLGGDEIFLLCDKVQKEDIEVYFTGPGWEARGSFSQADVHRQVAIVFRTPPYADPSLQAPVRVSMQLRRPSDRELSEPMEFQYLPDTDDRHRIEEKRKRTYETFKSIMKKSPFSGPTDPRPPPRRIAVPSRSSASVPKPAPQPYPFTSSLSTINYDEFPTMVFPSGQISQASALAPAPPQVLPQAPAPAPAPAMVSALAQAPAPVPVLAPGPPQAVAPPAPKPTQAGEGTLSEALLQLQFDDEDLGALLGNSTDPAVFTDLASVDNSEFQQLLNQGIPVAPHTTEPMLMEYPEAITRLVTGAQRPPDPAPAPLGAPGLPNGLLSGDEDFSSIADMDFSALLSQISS

NF-kB p50 homodimer, sequence (P19838 1-433): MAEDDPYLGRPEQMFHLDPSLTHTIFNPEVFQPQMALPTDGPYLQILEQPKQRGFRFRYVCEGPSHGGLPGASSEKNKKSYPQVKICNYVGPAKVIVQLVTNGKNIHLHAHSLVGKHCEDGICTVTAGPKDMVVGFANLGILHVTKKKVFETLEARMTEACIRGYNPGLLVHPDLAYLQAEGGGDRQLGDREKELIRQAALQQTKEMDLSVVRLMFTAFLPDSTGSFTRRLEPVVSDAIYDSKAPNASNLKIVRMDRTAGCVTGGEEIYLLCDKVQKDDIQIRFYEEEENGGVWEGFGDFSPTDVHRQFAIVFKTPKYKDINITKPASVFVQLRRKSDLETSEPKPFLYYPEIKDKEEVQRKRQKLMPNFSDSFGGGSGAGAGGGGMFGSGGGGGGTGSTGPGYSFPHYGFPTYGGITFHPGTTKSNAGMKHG

For IgkB promoter element 22-mer, the Kd (with NF-kB p50 homodimer; in series [1]) was 4 nM each time.
